Results taken from the nanobody polyreactivity screen of Harvey et al. (2022).

Experiment: yeast display, Sf9 membrane polyspecificity reagent, FACS + sequencing; frameworks hold sequencing errors
How it was run: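 Genes from sorted yeast were amplified by colony PCR, read by MiSeq 2 × 250 sequencing and filtered on CDR length. These cells carried a synthetic nanobody library in Saccharomyces cerevisiae BJ5465 and were sorted by FACS into low and high (top ~1%) gates on anti-HA and streptavidin fluorescence. Polyreactivity is labelled according to the gate of origin.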
In the case of “QVQLVESGGGLVQAGGSLRLSCAASGIIIYKYAMGWDRQAPGTERELVAAITSGGGRTYYADSVKGRFTISRDNAKNTVYLQMNSLKPEDTAVYYCAATRPATYAAYDYWGQGTQVTVSS”, the “polyreactivity (PSR sort gate)” value is reported as “high polyreactivity”.
In the case of “QVQLVESGGGLVQAGGSLRLSCAASGIILAGYGMGWYRQAPGKERELVAAINGCGGSTYYADSVKGRFTISRDNAKNTVYLQMNSLKPEDTAVYYCATDWWSGLYYYWGQGTQVTVSS”, the “polyreactivity (PSR sort gate)” value is reported as “high polyreactivity”.
With “QVQLVESGGGLVQAGGSLRLSCAASGIILDPNAMGWSRQAPGKERELVAGITRSGVSTYYAESVKGRFTISRDNAKNTVYLKMNSLKPEDTAVYYCAKDRISGSKGEDDDYWGKGTQVTVSS” the “polyreactivity (PSR sort gate)” value was “low polyreactivity”.
In the case of “QVQLVESGGGLVQAGGSLRLSCAASGIILDRNAMGWYRQAPGKERELVAAINSIGGSTYYADSVKGRFTISRDTAKNTVYLQMNSLKPEDTAVYYCNVAQRYYGNFFSSRYEYWGQGTQVTVSS”, the “polyreactivity (PSR sort gate)” value is reported as “low polyreactivity”.
With “QVQLVESGGGLVQAGGSLRLSCAASGIILGLNVMGWYRQAPGKERELVATITRRGGSTFYADSVKGRFTISRDNAKNTVYLQMNSLKPEDTAVYYCNAEQWIWHHLTVQGFDYWGQGTQVTVSS” the “polyreactivity (PSR sort gate)” value was “high polyreactivity”.
In the case of “QVQLVESGGGLVQAGGSLRLSCAASGIILPRYAMGWYRQAPGKERELVAAISRGGGTYYADSVKGRFTISRDNAKNTVYLQMNSLIPEDTAVYYCAAAYVFVGSSHYYWGQGTQVTVSS”, the “polyreactivity (PSR sort gate)” value is reported as “high polyreactivity”.
In the case of “QVQLVESGGGLVQAGGSLRLSCAASGIILPYYVMGLYRQAPGKERELVAAISSGGRTYYADSVKGRFTISRDNAKNTVYLQMNSLKPEDTAVYYCNAYFTGKWYDYWGQGTQVTVSS”, the “polyreactivity (PSR sort gate)” value is reported as “high polyreactivity”.
With “QVQLVESGGGLVQAGGSLRLSCAASGIILRYYAMGWYRQAPGKERELVAAITRGGSTNYADSVKGRFTISRDNAKNTVYLQMNSLKPEVTAVYYCAADVVFWFSNVAWRDFGYWGQGTQVTVSS” the “polyreactivity (PSR sort gate)” value was “low polyreactivity”.
With “QVQLVESGGGLVQAGGSLRLSCAASGIILSGYAMGWYRQAPGKDRELVAAIRRGGSTYYADSVKGRFTISRDNAKNTVYLQMNSLKPEDTAVYYCNAYSSRKVKWWDDYWGQGTQVTVSS” the “polyreactivity (PSR sort gate)” value was “high polyreactivity”.
With “QVQLVESGGGLVQAGGSLRLSCAASGIILSYYVMGGYRQAPGNATELVAAISLRGGTTYYADSVKGRFTISRDNANTTVYIQMNSLKPEDTAVYYCAAQRPGFGYEYDYWGQGTQVTVSS” the “polyreactivity (PSR sort gate)” value was “high polyreactivity”.
In the case of “QVQLVESGGGLVQAGGSLRLSCAASGIILVRNAMGWYRQAPGKERELVAAISKSGGRTYYADSVKGRFTISRDNAKNTVYLQMNSLKPEDTAVYYCNVLTYHDFDYWGQGSQVTVSS”, the “polyreactivity (PSR sort gate)” value is reported as “high polyreactivity”.
For “QVQLVESGGGLVQAGGSLRLSCAASGIILYGYSMGWYRQAPGKERELVAAISWDGGSTYYADSVKGRFTISRDNAKNTVYLQMISLIPEDTAVYYCNALGGSEYDYWGQGTQVTVSS”, the “polyreactivity (PSR sort gate)” value was “low polyreactivity”.
With “QVQLVESGGGLVQAGGSLRLSCAASGIILYPNAMVWYRQAPGKERELVAGITRSGVSTYYADSVKGRFTISRDNAKNTVYLQMNSLNPEDTAVYYCAKDRIYGSKGEDDDYWGQGTQVTVSS” the “polyreactivity (PSR sort gate)” value was “low polyreactivity”.
For “QVQLVESGGGLVQAGGSLRLSCAASGIILYRNVLGWYRQAPGKERELVASINRGSDSTYYADSVKGRFTISRDNEKNTVYLHMNSLKPEDTAVYYCAAVYVYGVEMDYWGQGTQVTVSS”, the “polyreactivity (PSR sort gate)” value was “low polyreactivity”.
For “QVQLVESGGGLVQAGGSLRLSCAASGIILYRYAMGWYRQAPGKERELVAAISRRGGSTYYADSVKGRFTISRDNAKNTVYLQMNSLKPEDTAVYYCATRSTFYSRWGEVYTYYYWGQGTQVTVSS”, the “polyreactivity (PSR sort gate)” value was “high polyreactivity”.
For “QVQLVESGGGLVQAGGSLRLSCAASGIISPFYAMGWYRPAPGNERELVADISTGGTTTYADSVKGRFTISRDNAKNTVYLKMNSLKPEDTAVYYCNAEVSLTYYWIVWASYDYWGQGTQVTVSS”, the “polyreactivity (PSR sort gate)” value was “low polyreactivity”.
With “QVQLVESGGGLVQAGGSLRLSCAASGIISRVYAMGWYRQAPGKERELVAAITRRGSTTYYADSVKGRFTISRDNAKNTVYLQMNSLKPEDTAVYYCAALARYGPRYRGDYWGQGTQVTVSS” the “polyreactivity (PSR sort gate)” value was “high polyreactivity”.
In the case of “QVQLVESGGGLVQAGGSLRLSCAASGIISYLYAMGWYRQAPGKERELVAVIRTSDAITYYADSVKGRFTISRDNAKNTVYLQMISLKPEDTAVYYCAAEDVYEYDYWGQGTQVTVSS”, the “polyreactivity (PSR sort gate)” value is reported as “high polyreactivity”.
For “QVQLVESGGGLVQAGGSLRLSCAASGIISYLYAMGWYRQAPGKERELVAVIRTSDAITYYADSVKGRFTISRDNAKNTVYLQMNSLKPEDTAVYYCAAEDVYEYDYWGQGTQVTVSS”, the “polyreactivity (PSR sort gate)” value was “high polyreactivity”.
With “QVQLVESGGGLVQAGGSLRLSCAASGIISYLYAMGWYRQAPGKERELVAVIRTSDAITYYADSVKGRFTISRDNAKNTVYLQMNSLKPEDTAVYYCNRDRGSIYGWGQGTQVTVSS” the “polyreactivity (PSR sort gate)” value was “high polyreactivity”.
In the case of “QVQLVESGGGLVQAGGSLRLSCAASGIIVPYNAMGWYRQEPGKVRYLVSAITSGGSTYYADSVKGRFTISRDNAKNTVYLQMNSMKPEDTAVYYCAKVPLSARRNNQSWAYDYWGQGTQVTVSS”, the “polyreactivity (PSR sort gate)” value is reported as “low polyreactivity”.
With “QVQLVESGGGLVQAGGSLRLSCAASGIIYAANPMGWYRQAPGKERELVAAISKNGGITYYADSVKGRFTISRDNAKNTVYLQMNSLKPEDTAVYYCAARWRQTRRYYYWGQGTQVTVSS” the “polyreactivity (PSR sort gate)” value was “high polyreactivity”.
For “QVQLVESGGGLVQAGGSLRLSCAASGIIYAYYAMGWYRQAPGKERELVAAISRSGGITYYADSVKGRFTISRDNAKNTVYLQMNSLKPEDTAVYYCARYSSRPYDYWGQGTQVTVSS”, the “polyreactivity (PSR sort gate)” value was “high polyreactivity”.
In the case of “QVQLVESGGGLVQAGGSLRLSCAASGILSLYTMGCSIQAPGKERELVAAISFRGGNTYYADSVKGRFTISRDNAKNTVYLQMNSLKPEDTAVYYCNAVTRPWRRGYDYWGQGTQVTVSS”, the “polyreactivity (PSR sort gate)” value is reported as “high polyreactivity”.
With “QVQLVESGGGLVQAGGSLRLSCAASGIMFFYYAMGWYRQAPGKERELVAAISNSDTSTSYADSVKGRFTISRDNAKNSVYFQMNSLKPEDTAVYYCNADSPSLSGDYWGQGTQVTVSS” the “polyreactivity (PSR sort gate)” value was “low polyreactivity”.
For “QVQLVESGGGLVQAGGSLRLSCAASGIMFTLYAMGWYRQAPGKERELVAAISGSGGSTYYAASVKGRFTISRDTAKKTVNLQMNSLKPEDTAVSYCRLAPRYRTGGYWGQGTQVTVSS”, the “polyreactivity (PSR sort gate)” value was “high polyreactivity”.
In the case of “QVQLVESGGGLVQAGGSLRLSCAASGINFGRNAMGWYSQAPGKERELVAAITRRGGRTNYADSVKGRFTISRDNAKNTVYLQMNSLKPEDNAVYYCNAHGRPAEAGYDYWGQATQVTVSS”, the “polyreactivity (PSR sort gate)” value is reported as “high polyreactivity”.
With “QVQLVESGGGLVQAGGSLRLSCAASGINFRQYTMGWFRQAPGKERELVAAITSSGRTYYADSVKGRFTISRDNAKNTVYLQMNSLKPEDTAVYYCAAKGTYRGHDYWGQGTQVTVSS” the “polyreactivity (PSR sort gate)” value was “high polyreactivity”.
For “QVQLVESGGGLVQAGGSLRLSCAASGINFRYYAMGWYRQAPGKERELVARISTRGGSTYYADSVKGRFTISRDNAKNTVYLQMNSLKPEDTAVYYCAAVNGLYYHKYGYYWGQGTQVTVSS”, the “polyreactivity (PSR sort gate)” value was “high polyreactivity”.
With “QVQLVESGGGLVQAGGSLRLSCAASGINFRYYAMGWYRQATGKERELVADISSDGGTYYADSVKGRFKISRDNAQNTVYLQMNSLKPEDTAVYYCAADYQFYWHYYYWGQGTQVTVSS” the “polyreactivity (PSR sort gate)” value was “high polyreactivity”.
